Three molecules from patent US20230338553A1 (TECHNISCHE UNIVERSIT T DRESDEN, published 2023) can be followed below.

Assay [1] concerns the target T1, Epidermal Growth Factor Receptor variant III (EGFRvIII) (UniProt P00533 25-1210).
T1 construct: whole, on cells
Briefly: flow cytometry on 293T^EGFRvIII cells, anti-myc and anti-biotin detection. On the procedure:
The bound antibodies were detected either via their myc-epitope using anti-myc/FITC antibody or via their biotin residue using anti-biotin/PE antibody (1:10; Miltenyi Biotec, Bergisch Gladbach, Germany). Cells stained only with secondary antibody were included as a control. […] At least 10,000 stained cells were measured by flow cytometry (MACSQuant, Miltenyi Biotec, Bergisch Gladbach, Germany) and analyzed by FlowJo software version 7.6.5 (TreeStar Inc., Ashland, USA).
In this case the AM1-antibodies served as negative controls. Binding of scFvs and of scFv-P-BAPs was visualized with secondary anti-myc-PE (grey histograms in upper and middle graphs). […] Open histograms represent control staining only using secondary antibodies or an IgG-PE isotype control. […] Recombinant proteins were separated using SDS-PAGE, with parental single chain antibodies serving as controls. Blots were subsequently stripped and re-probed with biotin antibodies.

The target of assay [2] is T2, Prostate Stem Cell Antigen (PSCA) (human, UniProt O43653 12-83).
T2 construct: whole, on cells
T2 sequence (looked up): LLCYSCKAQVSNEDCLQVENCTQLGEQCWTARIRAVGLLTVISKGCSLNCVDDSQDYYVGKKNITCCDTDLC
Briefly: flow cytometry titration on 293T^PSCA cells, anti-myc-PE detection (Example 7, FIG. 9). As for the experimental part: After detection with a secondary anti-myc-PE-antibody the MFIs were determined using a MACSQuant Cytometer (Miltenyi Biotech) and FlowJo software and the Kd values were calculated with the PRISM software program. FIG. 9 depicts the graphs for the KD value calculations.

B1: scFv(MR1.1)-P-BAP (scFv)
scFv: DAAQPARRARRTKLGTELGSHMQVKLQQSGGGLVKPGASLKLSCVTSGFTFRKFGMSWVRQTSDKRLEWVASISTGGYNTYYSDNVKGRFTISRENAKNTLYLQMSSLKSEDTALYYCTRGYSPYSYAMDYWGQGTTVTVSSSGGGSGGGGSGGGGSDIELTQSPASLSVATGEKATIRCMTSTDIDDDMNWYQQKPGEPPKFLISEGNTLRPGVPSRFSSSGTGTDFVFTIENTLSEDVGDYYCLQSWNVPLTFGDGTKLEITKLSSKLKVTVNGTAYDVDVDVDKSHENPMGTILFGGGTGGAPAPAAGGAGAGKAGEGEIPAPLAGTVSKILVKEGDTVKAGQTVLVLEAMKMETEINAPTDGKVEKVLVKERDAVQGGQGLIKIGDLELIEGSSGPEQKLISEEDLNSAVDHHHHHH
modifications: mono-biotinylated at the C-terminal P-BAP (PSTCD biotin acceptor domain)
notes: EGFRvIII-specific scFv fused to P-BAP
Turning to B1, the binding result in assay [1] is recorded as “binds”.

B2: scFv(AM1)-P-BAP (scFv)
scFv: DAAQPARRARRTKLGTELGSQVKLQESGGGLVQPGGSLKLSCVASGFTFSSYTMSWVRRTPEKRLEWVAYIHNGGGHTYYPDTIKGRFTISRDNAKNTLFLEMSSLKSEDTAMYYCTRRMYYGNSHWYFDVWGAGTSVTVSSAKTTPPSVYGGGGSGGGGSGGGGSTNSDIVMTQSPSSLSASLGDRVTINCRTSQDISNYLNWYQLTPDGTVKLLIYYTLKLNSGVPSRFSGSGSGTDYSLTINNLEKEDFATYFCQQSKTLPWTFGGGTKLEIKRADAAPTVSGPKLSSKLKVTVNGTAYDVDVDVDKSHENPMGTILFGGGTGGAPAPAAGGAGAGKAGEGEIPAPLAGTVSKILVKEGDTVKAGQTVLVLEAMKMETEINAPTDGKVEKVLVKERDAVQGGQGLIKIGDLELIEGSSGPEQKLISEEDLNSAVDHHHHHH
modifications: mono-biotinylated at the C-terminal P-BAP (PSTCD biotin acceptor domain) when produced in 293T-huBirA cells
notes: PSCA-specific murine scFv derived from 7F5, fused to P-BAP, with myc tag and His6; also called murine scFv(AM1)-BAP
Turning to B2, the binding result in assay [1] was “no binding (tested: 1 µg scFv on 2×10^5 cells)”.

B3: scFv(h-AM1)-BAP (scFv)
scFv: DAAQPARRARRTKLGTELGSEVQLLESGGGLVQPGGSLRLSCVASGFTFSSYTMSWVRQAPGKGLEWVSYIHNGGGHTYYADSVKGRFTISRDNSKNTLYLQMNSLRAEDTAVYYCTRRMYYGNSHWYFDVWGAGTRVTITSAKTTPPSVYGGGGSGGGGSGGGGSTNSDIQMTQSPSSLSASVGDRVTITCRTSQSISNYLNWYQQKPGKAPKLLIYYTLKLNSGVPSRFSGSGSGTDFTLTISSLQPEDFATYYCQQSKTLPWTFGGGTKLEIKRADAAPTVSGPEQKLISEEDLNSAVDMSGLNDIFEAQKIEWHEGAPSSHHHHHH
modifications: mono-biotinylated at the C-terminal BAP (Bio-Tag)
notes: Fully humanized PSCA-specific scFv with N-terminal Ig kappa leader in the construct and C-terminal c-Myc tag, Bio-Tag and His6; also called humanized scFv(h-AM1)
Consider B3, for which the “fold better affinity (KD value) than the parental murine scFv(AM1)” value in assay [2] stood at 100 fold.
